The values that follow come from patent publication US20150079112A1 (SAMSUNG ELECTRONICS, published 2015).

For test [1], the target named is T1, mutant Ang2 protein, N421 substituted with alanine, FLAG-tagged at its N-terminal (human, UniProt O15123 19-496, limits assumed).
T1 sequence: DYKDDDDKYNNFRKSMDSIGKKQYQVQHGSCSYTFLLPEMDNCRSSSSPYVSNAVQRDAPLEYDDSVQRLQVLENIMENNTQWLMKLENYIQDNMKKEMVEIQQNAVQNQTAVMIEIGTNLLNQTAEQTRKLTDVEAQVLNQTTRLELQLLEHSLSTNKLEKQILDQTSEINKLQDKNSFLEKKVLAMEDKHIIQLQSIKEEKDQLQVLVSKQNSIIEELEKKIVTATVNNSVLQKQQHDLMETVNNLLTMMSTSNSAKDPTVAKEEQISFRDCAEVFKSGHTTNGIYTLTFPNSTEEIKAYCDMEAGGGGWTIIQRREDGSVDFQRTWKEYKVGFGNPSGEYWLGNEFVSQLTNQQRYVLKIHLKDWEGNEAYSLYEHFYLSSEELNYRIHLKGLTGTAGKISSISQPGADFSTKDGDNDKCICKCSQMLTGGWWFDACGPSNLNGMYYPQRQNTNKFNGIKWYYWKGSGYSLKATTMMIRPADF
The test can be described thus: ELISA, coated antibody 1000 nM, 250 ng FLAG-tagged mutant Ang2, anti-FLAG-HRP, OD450. Here is the method: (§1) Each well of a 96-well MaxiSorp™ flat-bottom plate (Nunc) was coated with 50 ul (microliter) of 1000 nM antibody. Then, the plate was washed five times with 0.05% (v/v) Tween-20-containing PBS (PBST) and blocked with 1% (v/v) BSA-containing PBS at a room temperature for 2 hours. 250 ng of each mutant Ang2 protein obtained by substituting S417, Q418, P419, N421, I434, D448, A449, P452, Y460, N467, K468, or F469 residue of Ang2 protein tagged with a FLAG sequence ([…], Sigma) at its N-terminal with alanine was added to each well of the plate, which was then allowed to react at a room temperature for 2 hours.
(§2) The plate was washed five times with 0.05% (v/v) Tween-20 containing PBS, reacted with an anti-FLAG antibody (SIGMA) conjugated with HRP which was diluted in 1% (v/v) BSA-containing PBS at a ratio of 1:5,000 (v/v) at a room temperature for 1 hour, and washed five times with 0.1% (v/v) Tween-20-containing PBS.
(§3) Finally, 50 ul of TMB substrates (Cell signaling) was added to each well of the plate to induce color development at a room temperature for 3 min. and the reaction was ceased by the addition of 50 ul of Stop solution (Cell signaling) and then, OD450 values were measured on a plate reader (Molecular Devices). By comparing binding affinities with mutated Ang2 to those of unmutated Ang2, each epitope of Ang2 antibodies was identified. The thus obtained measurement results of the binding affinities (%) with mutant Ang2 against the binding affinity with the native Ang2 are shown in the following Table 8.

The target in test [2] is T2, mutant Ang2 protein, I434 substituted with alanine, FLAG-tagged at its N-terminal (human, UniProt O15123 19-496, limits assumed).
T2 sequence: T1 sequence with A411N, I424A
Described as above. Here is the method:
as §1, §2, §3

Test [3] addresses T3, mutant Ang2 protein, F469 substituted with alanine, FLAG-tagged at its N-terminal (human, UniProt O15123 19-496, limits assumed).
T3 sequence: T1 sequence with A411N, F459A
The description is as above. Here is the method:
as §1, §2, §3

Test [4] deals with T4, hTie2-Fc (R&D Systems) (human, UniProt Q02763 23-745).
T4 construct: also called hTie-2/Fc fusion protein; not shown: Fc of human IgG1
T4 sequence (Q02763 23-745 limits assumed): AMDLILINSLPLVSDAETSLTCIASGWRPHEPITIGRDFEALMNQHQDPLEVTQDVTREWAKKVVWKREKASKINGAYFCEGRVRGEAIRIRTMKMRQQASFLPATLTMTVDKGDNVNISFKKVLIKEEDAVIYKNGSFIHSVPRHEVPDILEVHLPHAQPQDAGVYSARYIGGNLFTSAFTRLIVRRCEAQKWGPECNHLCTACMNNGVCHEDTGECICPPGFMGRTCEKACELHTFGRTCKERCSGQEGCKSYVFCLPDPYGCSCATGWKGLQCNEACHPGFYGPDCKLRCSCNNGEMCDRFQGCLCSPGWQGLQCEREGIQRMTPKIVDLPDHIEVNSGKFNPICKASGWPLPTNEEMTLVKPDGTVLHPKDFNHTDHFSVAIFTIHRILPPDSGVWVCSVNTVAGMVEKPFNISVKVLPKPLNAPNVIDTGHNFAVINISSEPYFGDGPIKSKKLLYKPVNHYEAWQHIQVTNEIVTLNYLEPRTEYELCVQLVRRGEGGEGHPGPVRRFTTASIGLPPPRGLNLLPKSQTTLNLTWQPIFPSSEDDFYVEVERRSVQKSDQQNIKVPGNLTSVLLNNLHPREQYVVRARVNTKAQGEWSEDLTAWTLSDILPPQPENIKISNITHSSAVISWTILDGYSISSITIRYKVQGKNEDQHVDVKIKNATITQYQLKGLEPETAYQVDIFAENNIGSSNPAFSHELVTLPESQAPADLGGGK
Kind of test: ELISA: coated Tie2-Fc, 10D6 2 µg/ml without Ang2, detected with anti-mouse IgG-HRP (OD450). Here is the method:
A 96-well MaxiSorp™ flat-bottom plate (Nunc) was coated with 4 ug/ml of Tie2-Fc (R&D systems) or BSA (Sigma). Then, the plate was washed five times with 0.05% (v/v) Tween-20-containing PBS (Phosphate Buffer Saline) and blocked with 1% (v/v) BSA (Bovine serum albumin; Sigma)-containing PBS at a room temperature for 2 hours. […] After that, an anti-mouse IgG antibody (Sigma) conjugated with HRP diluted in 1% (v/v) BSA-containing PBS at a ratio of 1:5,000 (v/v) was added in an amount of 100 ul to each well to react at a room temperature for 1 hour and then, the plate was washed five times with PBST. Lastly, 100 ul (microliter) of TMB substrate (Cell Signaling) was added to each well of the plate to induce color development for 3 min. and then, the reaction was ceased by the addition of 100 ul of Stop solution (Cell Signaling) and OD450 values were measured on a plate reader (Molecular Devices).
(In general: An ELISA detects its analyte on a solid surface through an enzyme-linked reagent.)

Positions count from the first letter of the chain named.

B1: SAIT-ANG2-AB-m10D6 (antibody, V domains shown)
VH: DVQLQESGPGLVKPSQSLSLTCTVTGYSITSDYAWNWIRQFPGNKLEWMGYINYSGNTDYNPSLKSRSSITRDTSKNQFFLQLNSVTTGDTATYYCARGNFEGAMDYWGQGTSVTVSS
VL: SIVMTQTPKFLLVSAGDRVTITCKASQSVSNDVAWYQQKPGQSPKLLIYYASNRYPGVPDRFTGSGYGTDFTFTISTVQAEDLAVYFCQQDYSSPWTFGGGTKLEIK
notes: also called antibody 10D6; anti-Ang2 antibody (10D6)
Consider B1, for which the “binding affinity (%) with mutant Ang2 against the binding affinity with the native Ang2” value in test [1], in test [2] and in test [3] was 109% each time. Besides, the binding result in test [4] is “no binding (tested: 2 µg/ml)”.
